# Assay results as given in US20240366624A1, “METHODS AND COMPOSITIONS FOR TREATING THROMBOTIC DISEASE” (Washington University, priority 2023, published 2024).
# Residue numbers refer to the chain shown, from its start.
# B1: wtERO1α: recombinant wild-type ERO1α (protein)
# chain: EEQPPETAAQRCFCQVSGYLDDCTCDVETIDRFNNYRLFPRLQKLLESDYFRYYKVNLKRPCPFWNDISQCGRRDCAVKPCQSDEVPDGIKSASYKYSEEANNLIEECEQAERLGAVDESLSEETQKAVLQWTKHDDSSDNFCEADDIQSPEAEYVDLLLNPERYTGYKGPDAWKIWNVIYEENCFKPQTIKRPLNPLASGQGTSEENTFYSWLEGLCVEKRAFYRLISGLHASINVHLSARYLLQETWLEKKWGHNITEFQQRFDGILTEGEGPRRLKNLYFLYLIELRALSKVLPFFERPDFQLFTGNKIQDEENKMLLLEILHEIKSFPLHFDENSFFAGDKKEAHKLKEDFRLHFRNISRIMDCVGCFKCRLWGKLQTQGLGTALKILFSEKLIANMPESGPSYEFHLTRQEIVSLFNAFGRISTSVKELENFRNLLQNIH
# B2: mERO1α: activity-null ERO1α-Cys94Ser (protein)
# chain: B1 chain with C71S
# Experiments:
# Ero1α KO mice = test: Intravital microscopy, laser-induced cremaster arteriolar injury, rescue in Ero1α KO mice; type: in vivo, mouse; settings: 4 μg/g BW into Ero1α KO mice
# Method: FIG. 2 (A-C): DyLight 649-conjugated anti-CD42c and Alexa 488-conjugated rabbit IgG or polyclonal anti-ERO1α antibodies (0.3 μg/g body weight [BW]) were injected into wild type (WT) mice for intravital microscopy. Platelet accumulation and extracellular Ero1α were detected at the site of laser-induced cremaster arteriolar injury. FIG. 2A: Representative images. FIG. 2B and FIG. 2C: The median integrated fluorescence intensities of anti-CD42c (F platelet) and anti-ERO1α antibodies (F Ero1α; n=41-43 arterioles in 6 WT mice per group). FIG. 2(D-F): Intravital microscopy with WT control and Ero1α conditional knockout (CKO) and knockout (KO) mice. After laser-induced cremaster arteriolar injury, platelet accumulation and fibrin generation were detected by injection of DyLight 649-conjugated anti-CD42c and Alexa 488-conjugated anti-fibrin antibodies, respectively. FIG. 2D: Representative images. FIG. 2E and FIG. 2F: The median integrated fluorescence intensities of anti-CD42c (F platelet) and anti-fibrin (F fibrin) antibodies (n=36-44 arterioles in 6 mice per group). Quantification of the antibody signal at a different time point after laser injury. FIG. 2G and FIG. 2H: Ero1α KO mice were treated with recombinant wtERO1α or mutant ERO1α (m ERO1a) (Cys94Ser), 4 μg/g BW. After laser injury, platelets and fibrin were detected as described above (n=36-38 arterioles in 6 mice per group). FIG. 2I: The time to occlusion (TTO) was measured by a Doppler blood flow meter in WT control, Ero1α CKO/KO, and β3 KO mice after the application of 6.5% FeCl3 to a carotid artery (n=8-11 mice per group). FIG. 2J and FIG. 2K: After amputating the tail tip (5 mm), tail bleeding times and hemoglobin (Hb) contents were measured in WT control, Ero1α CKO/KO, and β3 KO mice (n=8-9 mice per group). Bars represent the median value. P values were determined by Mann-Whitney U test (FIG. 2E, FIG. 2F, and FIG. 2(1-K)) or ANOVA and Dunn test (FIG. 2G and FIG. 2H).
# Intravital microscopy was performed in a mouse model of laser-induced cremaster arteriolar injury as previously described. WT (C57BL/6), littermate WT control, and CKO and KO male mice (8-10 weeks old) were anesthetized with intraperitoneal injection of ketamine and xylazine. The cremaster muscle was exteriorized and superfused with 37° C. bicarbonate-buffered saline throughout the experiment. Arteriolar wall injury was induced by laser ablation (Photonics Instruments) as previously described. Multiple thrombi were generated in at least 3 to 4 different arterioles of 1 mouse, with new thrombi formed upstream of earlier thrombi to minimize any contribution from thrombi generated earlier in the mouse. […]
# Ero1α-null platelets = test: Platelet aggregation, Ero1α-null platelets; type: cell-based, mouse; settings: 50 μg/mL protein, 0.025 U/mL thrombin
# Method: FIG. 7(A-L) is an exemplary embodiment of crucial intracellular ERO1α (endoplasmic reticulum oxidoreductase 1a) for platelet activation, aggregation, and thrombus formation in accordance with the present disclosure. FIG. 7A: Ex vivo platelet thrombus formation in a flow chamber assay. Adherent and aggregated platelets were stained with rhodamine-conjugated phalloidin and imaged by confocal microscopy. Representative images (bar, 10 μm). Surface coverage and thrombus volume were measured (mean±SD, n=4). FIG. 7(B-E): Aggregation and ATP secretion of wild type (WT) and Ero1α-null platelets were induced by 0.025 U/mL thrombin, 0.05 μg/mL CRP (collagen-related peptide), 0.5 μM A23187, or 2.5 μM ADP. […] Quantification graphs of aggregation and ATP secretion are presented as the mean±SD (n=3-4). FIG. 7G and FIG. 7H: P-selectin exposure and αIIbβ3 integrin activation of WT and Ero1α-null platelets were analyzed by flow cytometry. The data are presented as the geometric mean fluorescence intensity (MFI) value (mean±SD, n=3-4). […] P values determined by unpaired Student t test (FIG. 7(A-E) and FIG. 7(G-1)), ANOVA and Dunnett test (FIG. 7F), or Mann-Whitney U test (FIG. 7K and FIG. 7L). […]
# FIG. 10(A-E) is an exemplary embodiment of 15E9 not affecting platelet activation and aggregation in accordance with the present disclosure. […] P values determined by unpaired Student's t-test (vs. mIgG1). […]
molecule,measurement,setting,value
B1,rescue of fibrin generation,Ero1α KO mice,minimal rescue effect
same,rescue of platelet thrombus formation,Ero1α KO mice,minimal rescue effect
same,rescue of the defect in Ero1α-null platelet aggregation,Ero1α-null platelets,did not rescue
B2,rescue of fibrin generation,Ero1α KO mice,did not show any effect
same,rescue of platelet thrombus formation,Ero1α KO mice,did not show any effect
